Results as given in the nanobody polyreactivity screen of Harvey et al. (2022).

Assay: yeast display, Sf9 membrane polyspecificity reagent, FACS + sequencing; frameworks hold sequencing errors
Method in brief: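 In a synthetic yeast display library (Saccharomyces cerevisiae BJ5465), nanobody expression was induced with galactose for 36–48 hours. FACS gates were set low and high (top ~1%) using anti-HA fluorescence for expression and streptavidin fluorescence for binding of the Sf9 membrane reagent. Each polyreactivity label is drawn from the gate of origin.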

## QVQLVESGGGLVQAGGSLRLSCAASGSTFYSYAMGWYRQAPGKERELVAAISWDGGLTYYADSVKGRFTISRDNAKNTVYLQMNSLKPEDNAVYYCAAAYPTYRHYYWGQGTQVTVSS
  polyreactivity (PSR sort gate): low polyreactivity

## QVQLVESGGGLVQAGGSLRLSCAASGSTIGDNAMGWYSQAPGKERELVASISWSGASTYYADSVKGRFTISRDNAKNTVYLQMNSLKPEDTAVYYCAVYYSYYSHLYHLLFYYWGQGTQVTVSS
  polyreactivity (PSR sort gate): low polyreactivity

## QVQLVESGGGLVQAGGSLRLICAASGRIFSTYAMGWYRQAPGKERELVAAINKIGGSTYYADSVKGRFTISRDNAKNTVYLQMNSLKPEDTAVYYCAADAPYYPVRRYYYWGQGTQVTVSS
  polyreactivity (PSR sort gate): low polyreactivity

## QVQLVESGGGLVQAGGSLRLSCAASGRIFRGYAMGWYRQAPGKERELVAGISSGDNTYYADSVKGRFTISRDNAKNTVYLQMNSLKPEDTAVYYCNADHVYAVDYDYWGQGTQVTVSS
  polyreactivity (PSR sort gate): low polyreactivity

## QVQLVESGGGLVQAGGSLRLSCAASGRMFWSNAMGWYIQAPGKERELFAAIRNTGSTNYADSVKGRFTISRDNAKNTVYLQMNSLKPEDTAVYYCAAYKGSSKYDYWGQGTQVTVSS
  polyreactivity (PSR sort gate): high polyreactivity

## QVQLVESGGGLVQAGGSLRLSCSACGGIFDWYAMGWYRQAPGKERELVAAIDFSGDSTYYADSVKGRFTISRDNAKNTVYLQMNSLKPEDTAVYYCAAETNTWYLFDYWGQGTQVTVSS
  polyreactivity (PSR sort gate): high polyreactivity

## QVQLVESGGGLVQAGGSLRLSCAASGRICVTYAIGRYRQAPGKERELVAASTYSGGSTYYADSVKGRFTISRDNAKNTVYLQMNSLKPEDTAVYYCGWTYHYHRESWGQGTQVTVSS
  polyreactivity (PSR sort gate): low polyreactivity

## QVQLVESGGGLVQAGGSLRLSCAASGNIFAWYAMGWYRQAPGKERELVADISSRGGSTYYADSVKGRFTISRDNAKNTVYLQMNRLKPEDTAVYYCAAVWYWTQDYDYWGQGTQVTVSS
  polyreactivity (PSR sort gate): low polyreactivity

## QVQLVESGGCLVQAGGSLRLSCAASGSIFVYYAMGWYRQSPGKERELVAAISWSGGSTRYADSVKGRFTISRDNAKNTVYLQMNSLKPEDTAVYYCAAKRLGGGYWGQGTQVTVSS
  polyreactivity (PSR sort gate): high polyreactivity

## QVQLVESGGGLVQAGGSLRLSCAASGIPLVSYARGWYRPAPGKVRELVAAISTSGGRTRYADSVKGRFTISRDHAKNTVYIQMNSLKPEDTAVYYCAAELVEPRYNHLPGDGNYWGQGTQVTGSS
  polyreactivity (PSR sort gate): high polyreactivity

## QVQLVESGGGLVQAGGSLRLSCAASGSTISGYAMGWYRQAPGKERELVATISRGGSTNYADSVKGRFTISRDNAKNTVYLQMNSLKPEDTAVYNCAAQTYVWWVKYHSWGQGTQVTVSS
  polyreactivity (PSR sort gate): low polyreactivity

## QDQLVESGGGLVQAGGSLRLSCAASGSTLNGNAMGWYRQAPGKERELVAAITTSGGSTYYADSVKGRFTISRDNAKNTVYLQMNSLKPEDTAVYYCNKLIGRRYGWANGYDYWGQGTQVTVSS
  polyreactivity (PSR sort gate): low polyreactivity

## QVQLVESGGGLFQAGGSLRLSCAASGFISSGNTMAWYRQAPGKERELVAAISGSGGRTYYADSVKGRFTISRDNAKNTVYLQMNSLKPEDTAVYYCATPLQQLYGYWGQGTQVTVSS
  polyreactivity (PSR sort gate): low polyreactivity

## QVQLVESGGGLVQAGGSLRLSCAASGRIFDRKAMGWYRQAPGKERELVAAISSRDGSTYYADSVKGRFTISRDNAKNTVYLQMNSLKPEDTGVYYCNRVSRGPVGGYYWGQGTQVTVSS
  polyreactivity (PSR sort gate): high polyreactivity

## QFQLVESGGGLLQAGGSLRLSCAASGLTFNQKAMGWYTQAPGKDRELVAAISRRGGSTYYADSVKGRFTFSRENAKNTVYLQLNSLKPEDTAVYYCNTRGKSGLWWYYYWGQGTQVTVSS
  polyreactivity (PSR sort gate): high polyreactivity

## QVQLVESGGGLVQAGGSLRLSCAASGYIFTGNAMGWYRQAPGKERELVAAISKSGSRTYYADSVKGRFTISRDNAKNTVYLQMNSLKPEDTAVYYCNAYSARDSELDYWGQGTQVTVSS
  polyreactivity (PSR sort gate): high polyreactivity

## QVQLVESGGGLVQAGGSLRLSCAASGRIFDIYAMGWYRQAPGKERELVAGITSVGSTNYADSVKGRFTISRDNAKNTVYLQMNSLKPEDTAFYYCAADTSVHSEVDYWGQGTQGTVSS
  polyreactivity (PSR sort gate): low polyreactivity

## QVQLVESGGGLVQAGGSLRLSCAASGRIFNYNVMGWYRQAPGKERELVASISYSSTRTYYADSVKGRFTISRDTAKNTVYLQMNSLKPEDTAVYYCNADYYFSSYRSTFDYWGQGTQVTVSS
  polyreactivity (PSR sort gate): low polyreactivity

## QVQLVESGGGLVQAGGSLRLSCAPSGRIFQWYAMGWYRQAPGKERELVAAIRNGGTTNYADSVKGRFTISRDNAKNTVYLQMNSVIPVDTAVYYCNADKYRTWDFQPRYPGGYWGQGTQVTVSS
  polyreactivity (PSR sort gate): low polyreactivity

## QVQLVESGGGLLQAGGSLRLSCAASGIIIVGYAMGWYRQAPGKERELVAAISRSSGSTYYADSVKGRFTISRDNAKNTVYLQMNSLKPEDTAVYYCARYNQYYSTEDYWGQGPQVTVSS
  polyreactivity (PSR sort gate): high polyreactivity

## QVQLVESGGGLVQAGGSLRLSCAASGRTFWIYAMGWYRQAPGKERELVAGISRSGGSTNYADSVKGRFTISRDNAKNTVYLQMNSLKPEDTAVYYCNTDPYSSAWYNYDYWGQGTQVTVSS
  polyreactivity (PSR sort gate): low polyreactivity

## QVQLGESRGGLVQAGGSLRLSCAASGRTFTGYAMGWYRQAPGKERELVAAITVSSGRTYYADSVKGRFTISRDNAKNTVYLQMNSLKPEDTAVYYCAKRFRSTHLWKFGGYDYWGQGTQVTVSS
  polyreactivity (PSR sort gate): high polyreactivity

## QDQLVESGGGLLQAGGSLRLICAASGYTLQGYAMGSSRQATGKERELVAAISSNGGSTYYADSVKGRFTISRDNAKNTVYLEMNSLKPEDTAVYYCNAQYIVYYRYARITKYDYWGQGTQVTVSS
  polyreactivity (PSR sort gate): high polyreactivity

## QVQLVESGGGLVQAGGSLRLSCAASGSIFTKYAMGWYIQAPGKEREFVAAITLSGGSTYYADSVKGRFTISRDNAKNTVYLQMNSLKPEDTAVYYCNAAYTYVTAWYYYWGQGTQVTVSS
  polyreactivity (PSR sort gate): high polyreactivity

## QVQLVESGGGLVQAGGSLRLSCAASGNIFGYYAMGWYRQAPGKERELVAAIRTRGGRTYYADSVKGRFTISRDNAKNTVYLQMNSLKPEDTAVYYCAARSIAGFWRYDYWGQGTQVTVSS
  polyreactivity (PSR sort gate): high polyreactivity

## QVQLVESGGGLVQAGGSLRLSCAASGRIFGYYAMVCYRQAPGKERELVAAISSGGGSTYYADSVKGRFTISRDNAKNTVYLQMNSLKPEDTAVYYCIVAYRWSTRYDYWGQGTQVTVSS
  polyreactivity (PSR sort gate): high polyreactivity

## QVQLVESGGGLVQAGGSLRLSCAASGRIFWSYAMGWYRQAPGKEREFVAVITWSGGSTYYADSVKGRFTISREYAKNTVYLEMNSLKPEDTAVYYCKADYYGPYRDYGYWGQGTQVTVSS
  polyreactivity (PSR sort gate): low polyreactivity

## QVQRVECGGGLVLAGGSLRLSCAASGRILVFYAMGWYRQARGKVRELVATITDTGRTNYADSVKGRCTISRDNAKKTDSLQMTSQKPEDTAVYYCAKQRDYGFPWATYDYWGQGTQGTVSS
  polyreactivity (PSR sort gate): low polyreactivity

## QVQLVESGGGLVQAGGSLRLSCAASGGTFKHYAMGWYRQAAGKERELVAAITRTGGSTYYADSVKGRYTISRDNAKNTVYLQMNSLKPEDTAVYYCAAQRPRGAYRHYDYWGQGTQVTVSS
  polyreactivity (PSR sort gate): high polyreactivity

## QVQLVESGGGLVQAGGSLRLSCAASGRTFRSDNALGWYRQPPGKERELVAAISQGGGTYYADSVKGRFTISRDNAKKTVYLQMNSLKPEDTAVYYCARDAYYADPSLWYYTYDYWGQGTQVTVSS
  polyreactivity (PSR sort gate): low polyreactivity

## QVQLLESGGGLVQAGVSLRLSCAASGRIFPYNAMGRYRQAAGKVREFVAAIYYSGGRTYYADSVKGRFTITRDNAKNTVYIQMNSLKPEDTAVYFCDISRYDYTKTEGGYWGQGTQVTVSS
  polyreactivity (PSR sort gate): low polyreactivity

## QVQLVESGRGLVQAGGSLRLSCAASGRTFDFNAMGWYRQAPGKERELVAAISSDSDTYYADSVKGRFTISRDNAKNTVFLQMNSLKPEDTAVYYCAAEHQYPYGWYYYWGQGTQVTVSS
  polyreactivity (PSR sort gate): high polyreactivity

## QVQLVESGGGLVQAGGSLRLSCAASGRIFNIYAMGWYRQAPGKERELVAAISVSGTRTYYADSVKGRFTISRDNAKNTVYLQMNSLKPEDTAVYYCAADSYGGVWTEHMYYWGQGTQVTVSS
  polyreactivity (PSR sort gate): low polyreactivity

## QVQLVESGGGLVQAGGSLRLSCAASGFTFPVNAMGWYRQAPGKERELVAAIRWIGGDTYYADSVKGRFTISRDNAKNPVYLQMNSLKPEDTAVYYCAAEDTDDYSIWYEYWGQGTQVTVSS
  polyreactivity (PSR sort gate): high polyreactivity

## QVQLVESGGGLVQAGGSLRLSCAASGFIFYLYAMGWYRQAPGKERELVAAISWDGGSTYYADSVKGRFTISRDNAKNTVYLQMNSLKPEDTAVYYCAADREFWWEVVYTYEYYYWGQGTQVTVSS
  polyreactivity (PSR sort gate): low polyreactivity

## LVQLQESGGGLVLAGGGLRLSCAASGNIFTYVIMGWYRQPPGKERELVAAITYGTITNYADSVKGPFTISRDNAKNTVYLQMNCLKPEDTAVYHCAVQSPRIEPRLYYWGQGTQVTVSS
  polyreactivity (PSR sort gate): high polyreactivity

## QVQLVESGGGLAQAGCSLRLSCAASGRLFRGNAMGGYRQAPGKERELVARITGNDGDTYYADSVKGRFTISRDNAKNTVYLQMNSLKPEDTAVYYCATDTSSYRRRYYYWGQGTQVTVSS
  polyreactivity (PSR sort gate): low polyreactivity

## QVQLVESGGGLVQEGGSLRLSCAASGSIFSTYVMGWYRQAPGKERELVAAISRRGGSTYYADSVKGRFTISRDNAKNTVYLQMNSLKPEDTAVYYCAADGTVGRRDYWGQGTQVTVSS
  polyreactivity (PSR sort gate): high polyreactivity

## QVQLVESGGGLVQAGGSLRLTCAASGNTFVSNAMGWYRQAPGKERELVAAIDSGGSTNYADSVKGRFTISRDNAKNTVYLQMNSLKPEDTAVYYCNRTSVYYYYWGQGTQVTVSS
  polyreactivity (PSR sort gate): low polyreactivity

## QVQLVESGGGLVQAGGSLRLSCAASGRTLDWNAMGWYRPAPGKERELVAAISWSGDSTYYADSVKGRFTISRDNAKNTVYLQMNSLKPEDTAVYYCAAAGVYYGVRGTTYAFDYWGQGTQVTVSS
  polyreactivity (PSR sort gate): low polyreactivity

## QVQLVESGGGLVQAGGSLRLSCAASGSTFTWNTMGWYRQAPGKEREMVAAISMRGANTYADSVKGRFTISLDNAKNTVYLEMNSLKPEDTAVYYCARDRLAIMDYNEYITRYEYWGQGTQVTVSS
  polyreactivity (PSR sort gate): low polyreactivity

## QVQLVESGGGLVQSGGTLRLSCAASGFTFYWYAMGWYRQAPGKEREMVAAITRGGRTYYEDSVKGRFTITRDNAKNTVYLQMNSLKPEDNAVYYCYAYVSWYRTVRTKYDYWGQGTQVTVSS
  polyreactivity (PSR sort gate): high polyreactivity

## QVQLVESGGGLVQAGGSLRLSCAASGSIFGYYAMGWYRQAPGTERELVATITWGGGSTYADSVKGRFTISRDNAKNTVYLQMNSLKPEDTAVYYCNAGYRYTSAQVTWEYDSWGQGTQVTVSS
  polyreactivity (PSR sort gate): low polyreactivity
